Non-standard residues stand in square brackets, D forms with d. No end group written: not given here. 2Nal = N[C@@H](Cc1ccc2ccccc2c1)C(=O)O; 2Thi = N[C@@H](Cc1cccs1)C(=O)O; β3hL = CC(C)C[C@H](N)CC(=O)O; Nle = CCCC[C@H](N)C(=O)O; βAla = NCCC(=O)O
T1: recombinant hPTH1-receptor (human, UniProt Q03431 27-593)
T1 sequence (looked up): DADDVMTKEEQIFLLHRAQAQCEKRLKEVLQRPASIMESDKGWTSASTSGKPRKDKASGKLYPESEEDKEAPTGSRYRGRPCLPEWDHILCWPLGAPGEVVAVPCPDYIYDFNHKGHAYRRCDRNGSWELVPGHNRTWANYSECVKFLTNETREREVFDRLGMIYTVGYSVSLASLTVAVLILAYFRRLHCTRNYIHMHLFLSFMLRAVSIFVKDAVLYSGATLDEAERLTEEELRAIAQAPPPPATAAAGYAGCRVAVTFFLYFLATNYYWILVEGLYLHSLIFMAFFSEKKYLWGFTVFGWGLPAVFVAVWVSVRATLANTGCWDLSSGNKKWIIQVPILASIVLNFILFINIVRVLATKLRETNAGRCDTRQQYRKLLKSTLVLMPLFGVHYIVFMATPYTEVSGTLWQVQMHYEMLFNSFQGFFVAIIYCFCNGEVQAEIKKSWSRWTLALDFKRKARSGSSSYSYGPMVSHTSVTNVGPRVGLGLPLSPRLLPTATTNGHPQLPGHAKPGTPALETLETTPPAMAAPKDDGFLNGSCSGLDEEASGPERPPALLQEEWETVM

T2: PTH receptor on SaOS-2/B10 cells (UniProt Q03431 27-593)
T2 sequence (looked up): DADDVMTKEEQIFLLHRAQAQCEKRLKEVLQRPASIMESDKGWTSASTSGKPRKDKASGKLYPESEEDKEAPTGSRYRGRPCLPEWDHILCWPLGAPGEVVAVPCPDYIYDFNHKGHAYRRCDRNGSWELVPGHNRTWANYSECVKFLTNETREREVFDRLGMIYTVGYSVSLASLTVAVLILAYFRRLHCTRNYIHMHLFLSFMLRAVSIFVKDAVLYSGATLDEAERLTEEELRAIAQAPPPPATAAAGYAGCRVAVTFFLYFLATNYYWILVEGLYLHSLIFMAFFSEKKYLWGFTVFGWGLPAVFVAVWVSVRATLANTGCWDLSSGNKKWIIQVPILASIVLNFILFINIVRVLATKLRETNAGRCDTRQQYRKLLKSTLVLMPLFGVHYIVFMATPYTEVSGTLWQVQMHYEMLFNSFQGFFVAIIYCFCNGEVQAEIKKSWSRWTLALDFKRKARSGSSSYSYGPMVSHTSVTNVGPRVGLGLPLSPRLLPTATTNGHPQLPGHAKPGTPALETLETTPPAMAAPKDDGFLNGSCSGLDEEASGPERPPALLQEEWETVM


Tests used:
[1] = target: T1, recombinant hPTH1-receptor; experiment: cell-based or functional assay
[2] = target: T2, PTH receptor on SaOS-2/B10 cells; experiment: cell-based or functional assay
[3] = target: T2, PTH receptor on SaOS-2/B10 cells; experiment: competition with mono-125I-[Nle8,18,Tyr34]bPTH(1-34)NH2 on SaOS-2/B10 cells
Protocol: SaOS-2/B10 cells were maintained for four days after they had reached confluence. The medium was replaced with 5% FBS […] medium and incubated for 2 hrs at room temperature with 10×10⁴ cpm mono-¹²⁵I-[Nle^{8,18},Tyr³⁴(3-¹²⁵I)]bPTH(1-34)NH₂ in the presence or absence of a competing tested polypeptide of the invention. The cells were washed four times with ice-cold PBS and lysed with 0.1M NaOH, and the radioactivity associated with the cells was counted in a scintillation counter. Synthesis of the radiolabelled [Nle^{8,18},Tyr³⁴(3-¹²⁵I)]bPTH(1-34)NH₂ was carried out as described in Goldman M. E., et al., Endocrinology, (1988), 123, 1468-1475.
The binding assay was conducted on the polypeptides of the invention having SEQ ID NO:5, 6, 7, 9, 10, 11, and 12.

[4] = target: T1, recombinant hPTH1-receptor; experiment: competition with 125I-[Nle8,18,Nal23,Tyr34]bPTH(1-34)NH2 on HEK293/C21 cells with hPTH1-receptor
Protocol: Human embryonic kidney (HEK293) cells, stably transfected with recombinant hPTH1-receptor (HEK293/C21 cell line, ˜400,000 receptors/cell) (Pines, M., Adams, A. E., Stueckle, S., Bessalle, R., Rashti-Behar, V., Chorev, M., Rosenblatt, M., and Suva, L. J. Endocrinology 1994, 135, 1713-1716), were maintained in D-MEM medium supplemented with 10% fetal bovine serum and […] glutamine at 37° C. in a humidified atmosphere of 95% air/5% CO₂. The medium was changed every 3-4 days, and the cells were subcultured every week. Ligand stimulated adenylyl cyclase activity and radioreceptor competition binding assays were performed on confluent cultures, 1-3 days after a change of medium.
[Nle^{8,18},Nal²³,Tyr³⁴]bPTH(1-34)-NH₂ was radioiodinated and the crude material was purified as previously described (Roubini, E., Duong, L. T., Gibbons, S. W., Leu, C. T., Caulfield, M. P., Chorev, M., and Rosenblatt, M. Biochemistry 1992, 31, 4026-4033). Briefly, 67 μg of peptide in 50 μL phosphate buffer, pH 7.4, in a borosilicate tube, coated with 10 μg Iodogen® (Pierce Chemical), were treated at room temperature with 2 mCi [¹²⁵I]Na for 12 min, followed by dilution with 200 μL of 0.1% TFA in water.
Cells were plated in 24-well tissue culture dishes (Corning Glass Works, Corning, N.Y.) and grown to subconfluency. […] After incubation, cells were washed twice with PBS and lysed with 0.1 M NaOH. Radioactivity in the lysate was measured in a γ-counter (Analytic GammaTrac™ 1193).

Molecule	EC50 (half maximal stimulation of adenylate cyclase) [1]	EC50 (half maximal stimulation of adenylate cyclase) [2]	IC50 [3]	IC50 [4]
AVSEHQLLHDKGKSIQDLRRRELLEKLLELLHTA-NH2 (Synthetic analog of human PTHrP(1-34), carboxamide at the C-terminus) [[Glu^22,25,29, Leu^23,28,30,31, Lys^26]hPTHrP(1-34)NH2]	–	5 nM	70 nM	–
AVSEHQLLHDKGKSIQDLRRRELLEKLLEKL[2Thi]TA-NH2 (N-terminus assumed; SMILES CC[C@H](C)[C@H](NC(=O)[C@H](CO)NC(=O)[C@H](CCCCN)NC(=O)CNC(=O)[C@H](CCCCN)NC(=O)[C@H](CC(=O)O)NC(=O)[C@H](Cc1c[nH]cn1)NC(=O)[C@H](CC(C)C)NC(=O)[C@H](CC(C)C)NC(=O)[C@H](CCC(N)=O)NC(=O)[C@H](Cc1c[nH]cn1)NC(=O)[C@H](CCC(=O)O)NC(=O)[C@H](CO)NC(=O)[C@@H](NC(=O)[C@H](C)N)C(C)C)C(=O)N[C@@H](CCC(N)=O)C(=O)N[C@@H](CC(=O)O)C(=O)N[C@@H](CC(C)C)C(=O)N[C@@H](CCCNC(=N)N)C(=O)N[C@@H](CCCNC(=N)N)C(=O)N[C@@H](CCCNC(=N)N)C(=O)N[C@@H](CCC(=O)O)C(=O)N[C@@H](CC(C)C)C(=O)N[C@@H](CC(C)C)C(=O)N[C@@H](CCC(=O)O)C(=O)N[C@@H](CCCCN)C(=O)N[C@@H](CC(C)C)C(=O)N[C@@H](CC(C)C)C(=O)N[C@@H](CCC(=O)O)C(=O)N[C@@H](CCCCN)C(=O)N[C@@H](CC(C)C)C(=O)N[C@@H](Cc1cccs1)C(=O)N[C@H](C(=O)N[C@@H](C)C(N)=O)[C@@H](C)O, Synthetic analog of human PTHrP(1-34), carboxamide at the C-terminus) [[Glu^22,25,29, Leu^23,28,31, Lys^26,30, Thi^32]hPTHrP(1-34)NH2]	–	10 nM	90 nM	–
SVSEIQLMHNLGKHLNSMERVELLEKLLEKLHNF-NH2 (Synthetic analog of human PTH(1-34), carboxamide at the C-terminus) [[Glu^25,29, Leu^23,27,31, Lys^30]hPTH(1-34)NH2]	–	24 nM	216 nM	–
SVSEIQLMHNLGKHLNSMERVEWLEKKLEKVHNF-NH2 (Synthetic analog of human PTH(1-34), carboxamide at the C-terminus) [[Glu^25,29, Lys^30]hPTH(1-34)NH2]	–	25.5 nM	30 nM	–
AVSEHQLLHDKGKSIQDLRRREFLEKLIEKIHTA-NH2 (Synthetic analog of human PTHrP(1-34), carboxamide at the C-terminus) [[Glu^22,25,29, Lys^26,30]hPTHrP(1-34)NH2]	–	0.42 nM	5.5 nM	–

Continued, values first:

EC50 (half maximal stimulation of adenylate cyclase) [1]	EC50 (half maximal stimulation of adenylate cyclase) [2]	IC50 [3]	IC50 [4]	Molecule
13.8 nM	–	–	–	[Nle^8, β-Ala^18,19, Nal^23, Tyr^34]bPTH(1-34)NH2 (peptide)
–	0.74 nM	18.3 nM	–	AVSEHQLLHDKGKSIQDLRRRFLLHHLLAELHTA-NH2 (Synthetic analog of human PTHrP(1-34), carboxamide at the C-terminus) [[Leu^23,28,31]hPTHrP(1-34)NH2]
1.51 nM	–	–	59 nM	AVSEIQF[Nle]HNLGKHLSS[Nle][βAla]RVE[2Nal]LRKKLQDVHNY-NH2 (N-terminus assumed; SMILES CCCC[C@H](NC(=O)[C@H](CO)NC(=O)[C@H](CO)NC(=O)[C@H](CC(C)C)NC(=O)[C@H](Cc1c[nH]cn1)NC(=O)[C@H](CCCCN)NC(=O)CNC(=O)[C@H](CC(C)C)NC(=O)[C@H](CC(N)=O)NC(=O)[C@H](Cc1c[nH]cn1)NC(=O)[C@H](CCCC)NC(=O)[C@H](Cc1ccccc1)NC(=O)[C@H](CCC(N)=O)NC(=O)[C@@H](NC(=O)[C@H](CCC(=O)O)NC(=O)[C@H](CO)NC(=O)[C@@H](NC(=O)[C@H](C)N)C(C)C)[C@@H](C)CC)C(=O)NCCC(=O)N[C@@H](CCCNC(=N)N)C(=O)N[C@H](C(=O)N[C@@H](CCC(=O)O)C(=O)N[C@@H](Cc1ccc2ccccc2c1)C(=O)N[C@@H](CC(C)C)C(=O)N[C@@H](CCCNC(=N)N)C(=O)N[C@@H](CCCCN)C(=O)N[C@@H](CCCCN)C(=O)N[C@@H](CC(C)C)C(=O)N[C@@H](CCC(N)=O)C(=O)N[C@@H](CC(=O)O)C(=O)N[C@H](C(=O)N[C@@H](Cc1c[nH]cn1)C(=O)N[C@@H](CC(N)=O)C(=O)N[C@@H](Cc1ccc(O)cc1)C(N)=O)C(C)C)C(C)C, Synthetic analog of bovine PTH(1-34), carboxamide at the C-terminus) [[Nle^8,18, β-Ala^19, Nal^23, Tyr^34]bPTH(1-34)NH2]
2.73 nM	–	–	117 nM	AVSEIQF[Nle]HNLGKHLSS[β3hL][βAla]RVE[2Nal]LRKKLQDVHNY-NH2 (N-terminus assumed; SMILES CCCC[C@H](NC(=O)[C@H](Cc1ccccc1)NC(=O)[C@H](CCC(N)=O)NC(=O)[C@@H](NC(=O)[C@H](CCC(=O)O)NC(=O)[C@H](CO)NC(=O)[C@@H](NC(=O)[C@H](C)N)C(C)C)[C@@H](C)CC)C(=O)N[C@@H](Cc1c[nH]cn1)C(=O)N[C@@H](CC(N)=O)C(=O)N[C@@H](CC(C)C)C(=O)NCC(=O)N[C@@H](CCCCN)C(=O)N[C@@H](Cc1c[nH]cn1)C(=O)N[C@@H](CC(C)C)C(=O)N[C@@H](CO)C(=O)N[C@@H](CO)C(=O)N[C@H](CC(=O)NCCC(=O)N[C@@H](CCCNC(=N)N)C(=O)N[C@H](C(=O)N[C@@H](CCC(=O)O)C(=O)N[C@@H](Cc1ccc2ccccc2c1)C(=O)N[C@@H](CC(C)C)C(=O)N[C@@H](CCCNC(=N)N)C(=O)N[C@@H](CCCCN)C(=O)N[C@@H](CCCCN)C(=O)N[C@@H](CC(C)C)C(=O)N[C@@H](CCC(N)=O)C(=O)N[C@@H](CC(=O)O)C(=O)N[C@H](C(=O)N[C@@H](Cc1c[nH]cn1)C(=O)N[C@@H](CC(N)=O)C(=O)N[C@@H](Cc1ccc(O)cc1)C(N)=O)C(C)C)C(C)C)CC(C)C, Synthetic analog of bovine PTH(1-34), carboxamide at the C-terminus) [[Nle^8, β-hLeu^18, β-Ala^19, Nal^23, Tyr^34]bPTH(1-34)NH2]
9.97 nM	–	–	–	AVSEIQF[Nle]HNLGKHLS[βAla][β3hL][βAla]RVE[2Nal]LRKKLQDVHNY-NH2 (N-terminus assumed; SMILES CCCC[C@H](NC(=O)[C@H](Cc1ccccc1)NC(=O)[C@H](CCC(N)=O)NC(=O)[C@@H](NC(=O)[C@H](CCC(=O)O)NC(=O)[C@H](CO)NC(=O)[C@@H](NC(=O)[C@H](C)N)C(C)C)[C@@H](C)CC)C(=O)N[C@@H](Cc1c[nH]cn1)C(=O)N[C@@H](CC(N)=O)C(=O)N[C@@H](CC(C)C)C(=O)NCC(=O)N[C@@H](CCCCN)C(=O)N[C@@H](Cc1c[nH]cn1)C(=O)N[C@@H](CC(C)C)C(=O)N[C@@H](CO)C(=O)NCCC(=O)N[C@H](CC(=O)NCCC(=O)N[C@@H](CCCNC(=N)N)C(=O)N[C@H](C(=O)N[C@@H](CCC(=O)O)C(=O)N[C@@H](Cc1ccc2ccccc2c1)C(=O)N[C@@H](CC(C)C)C(=O)N[C@@H](CCCNC(=N)N)C(=O)N[C@@H](CCCCN)C(=O)N[C@@H](CCCCN)C(=O)N[C@@H](CC(C)C)C(=O)N[C@@H](CCC(N)=O)C(=O)N[C@@H](CC(=O)O)C(=O)N[C@H](C(=O)N[C@@H](Cc1c[nH]cn1)C(=O)N[C@@H](CC(N)=O)C(=O)N[C@@H](Cc1ccc(O)cc1)C(N)=O)C(C)C)C(C)C)CC(C)C) [[Nle^8, β-Ala^17,19, β-hLeu^18, Nal^23, Tyr^34]bPTH(1-34)NH2]
–	1.12 nM	41 nM	–	SVSEIQLMHNLGKHLNSMERVELLRKLLQDLHNF-NH2 (Synthetic analog of human PTH(1-34), carboxamide at the C-terminus) [[Leu^23,27,31]hPTH(1-34)NH2]
